{
  "source": "paper PMC5216073",
  "key": {"[1]": {"biological_target": "CtYpt7 wild type (Chaetomium thermophilum Ypt7) (Chaetomium thermophilum)"}, "[2]": {"biological_target": "CtYpt7-F33A (Chaetomium thermophilum)"}, "[3]": {"biological_target": "CtYpt7-K38A (Chaetomium thermophilum)"}},
  "data": [
    {"substance": "CtMC1core complex (CtMon1 195-355 with CtCcz1 1-249), both expression tags retained, as used in the GEF assay", "values": [
      {"measurement": "kcat/KM of MC1-stimulated exchange of MANT-GDP for GTP on Ypt7 (fluorescence GEF assay, 0-2.0 μM CtMC1core, 25 °C)", "setting": "[1]", "result": 23000, "unit": "M⁻¹ s⁻¹"},
      {"measurement": "kcat/KM of MC1-stimulated nucleotide exchange (fluorescence GEF assay, rates against CtMC1core concentration)", "setting": "[2]", "result": 35000, "unit": "M⁻¹ s⁻¹"},
      {"measurement": "kcat/KM of MC1-stimulated nucleotide exchange (fluorescence GEF assay, rates against CtMC1core concentration)", "setting": "[3]", "result": 2600, "unit": "M⁻¹ s⁻¹"}
    ]}
  ]
}
